Assay results taken from paper PMC7591920, “A protein tertiary structure mimetic modulator of the Hippo signalling pathway” (Nature Communications, 2020).

T1: mouse TEAD4(210–427), as purified (SPR) (mouse), Q62296
T1 chain: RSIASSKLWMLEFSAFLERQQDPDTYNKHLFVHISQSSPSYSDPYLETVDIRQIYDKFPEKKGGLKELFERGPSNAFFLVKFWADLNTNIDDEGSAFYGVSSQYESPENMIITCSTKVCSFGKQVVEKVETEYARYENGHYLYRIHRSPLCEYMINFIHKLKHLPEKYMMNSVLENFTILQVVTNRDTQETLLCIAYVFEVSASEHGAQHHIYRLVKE

B1: VGL4(203–256), full-length VGL4-derived TEAD binding sequence (peptide 1) (peptide)
peptide: DPVVEEHFRRSLGKNYKEPEPAPNSVSITGSVDDHFAKALGDTWLQIKAAKDSA

target: GST-hTEAD1(209–426) (human) (UniProt P28347); experiment: SPR; GST-hTEAD1 and mTEAD4 covalently tethered (NHS/EDC) on CM5 chips, 2000–3000 RU; peptides as analytes, threefold dilutions, typically 30 µM top concentration; 10 mM HEPES, 150 mM NaCl, 0.05% Tween-20, pH 7.4, 0.3% DMSO, 20 °C; steady-state fit, 1:1 model

Row | Kd | Binder
1 | 1.4 µM | B1

Target: T1, mouse TEAD4(210–427), as purified (SPR) …
Experiment: as above

Row | Kd | Binder
2 | > 100 µM | SVDDHFAKALG (modifications not checked) [isolated helix peptide 5 derived from the VGL4 two-helix motif 4, Q80V24 203-256]
3 | 3.1 µM | SVDDHFAKALGDTWLQIKAA (modifications not checked) [VGL4 C-terminal two-helix motif peptide (peptide 4, helices α2/α3), Q80V24 203-256]
4 | 21.8 µM | DPVVEEHFRRSLGKNY (modifications not checked) [VGL4 N-terminal α-helix peptide (peptide 2, helix α1), Q80V24 203-256]
5 | > 100 µM | KEPEPAPNSVSITG (modifications not checked) [VGL4 intervening extended stretch peptide (peptide 3), Q80V24 203-256]
6 | > 100 µM | DTWLQIKAA (modifications not checked) [isolated helix peptide 6 derived from the VGL4 two-helix motif 4, Q80V24 203-256]

target: GST-hTEAD1(209–426) (human), P28347; experiment: as above

Row | Kd | Binder
7 | > 100 µM | SVDDHFAKALG (modifications not checked) [isolated helix peptide 5 derived from the VGL4 two-helix motif 4, Q80V24 203-256]
8 | 4.3 µM | SVDDHFAKALGDTWLQIKAA (modifications not checked) [VGL4 C-terminal two-helix motif peptide (peptide 4, helices α2/α3), Q80V24 203-256]
9 | 19.4 µM | DPVVEEHFRRSLGKNY (modifications not checked) [VGL4 N-terminal α-helix peptide (peptide 2, helix α1), Q80V24 203-256]
10 | > 100 µM | KEPEPAPNSVSITG (modifications not checked) [VGL4 intervening extended stretch peptide (peptide 3), Q80V24 203-256]
11 | > 100 µM | DTWLQIKAA (modifications not checked) [isolated helix peptide 6 derived from the VGL4 two-helix motif 4, Q80V24 203-256]
